Consider eleven molecules from patent publication US20240083986A1.

To fix the notation:
B1: H4H16987P (antibody, human IgG4 S228P, kappa, V domains shown)
VH: EVQLVESGGGLVQPGGSLRLSCAASGFTVSSNSMSWVRQAPGEGLEWVSVIFSGGITYYSDSVKGRFTISRHNSKNTLYLQMNSLRTEDTAVYYCARHSNWNFDAFDIWGQGTMVTVSS
VL: DIQMTQSPSSLSASVGDRVTITCRASQSFDTYLNWYQQKPGKAPNLLIYATSSLQSGVPSRFSGSGSGTDFTLTISSLQPEDFGTYYCQQSYSIPYTFGQGTKLEIKR
B2: H4H16960P (antibody, human IgG4, V domains shown)
VH: QLQLQESGPGLVRPSETLSLTCTVSGGSISSSNYWWGWIRQPPGKGLEWIGSIYYSGITYYNPSLKSRVTISADTSKDQFSLKLRSVTAADTAVYYCAKLEWLRLDFWGQGTTVTVSS
VL: DIQMTQSPSSVSASVGDRVTITCRASQGISSWLVWYQQKPGKVPKLLIYAASSLQSGVPLRFSGSGSGTDFTLTISSLQPEDFATYYCQQAKSFPLTFGQGTRLEIK
B3: H4H16946P (antibody, human IgG4, V domains shown)
VH: EVQLVESGGGLVQPGGSLRLSCVASGFTFSNYDMNWVRQAPGEGLEWISYISYSDHNIYYIDSVKGRFTISRDNAKNSLYLQMNSLRAEDTAIYYCAREALASSSFDYWGQGTLVTVSS
VL: EIVMTQSPATLSVSPGERVTLSCRASQSVSGNLAWYQQKPGQAPRLLIYSASTGATGVPARFSGSGSGTEFTLTISSLQSEDFALYYCQQYNKWPRTIGQGTKVEIK
B4: H4H16991P (antibody, human IgG4, V domains shown)
VH: QVQLVQSGAEVRKPGASVKVSCKASGYTFTGYYLHWVRQAPGQGLEWMGLINPNTGGTNFAQKFQGRVTMTRDSSISAAYMELSRLRSDDTAVYYCARQHWNRYFDNWGQGTLVTVSS
VL: DIQMTQSPSTLSASVGDRVTITCRASQSVGNWLAWYQQKPGKAPKLLIQEASSIESGVPSRFSGSGSGTEFTLIVSSLQPDDFATYYCQQYNSYSWTFGHGTKVEIK
B5: H4H17031P (antibody, human IgG4, V domains shown)
VH: QVQLQQWGAGLLKPSETLSLTCVVYGESFGNYHWNWIRQSPGKRLEWIGEINQNGHTNYNPSLKSRVTISVDTSKIQFSLRLNSVTAADTAVYFCARGHNYVNSYFGLDVWGQGTTVTVSS
VL: EIVMTQSPATLSVSPGERATLSCRTSQSVSISLAWYQRKPGQAPRLLIFGSSTRATGVPARFSGSGSGTEFTLTISSLQSEDFAVYYCQQYNNWPYTFGQGTKLEIK
B6: H4H17015P (antibody, human IgG4, V domains shown)
VH: QVQLQESGPGLVKPSQTLSLTCTVSGGSISSADHYWSWIRQQPGKGLEWIGYISYRGTTYYNPTLESRVSISVDTFKNQFSLMLHSVTVADTAVYYCAKVLQGLVRFRDYGFDVWGQGTTVTVSS
VL: DIQLTQSPPFLSASVGDRVTITCWASQDISSYLAWYQQNPGKSPKLLIYDAFTLHTGVPSRFSGSGSGTEFTLTISSLQPEDFATFYCQHLYSFPFTFGPGTKVDIK
B7: H4H17033P (antibody, human IgG4, V domains shown)
VH: QVQLVQSGAEVKKPGASVKVSCKASGYTFAAHYMHWVRQAPGQGLEWMGWINTYTGGTNYGQKFQGRVTMTRDTSITTAYMELSRLRSDDTAVYYCARDRRNWNFVFEYWGQGTLVTVSS
VL: DIQMTQSPSSLSASVGDRVTISCRASQNIKNYLNWYQQKPGKAPKLLIYEASNLQSGAPSRFSGSGSGTDFTLTISSLEPEDFATYYCQQSFSIPWTFGQGTKVEIK
B8: H4H17001P (antibody, human IgG4, V domains shown)
VH: QVQLVESGGGLVKPGGSLRLSCAASGFTFSDYYMNWIRQAPGKGLEWISLISSSGSAIYYSDSVKGRFTISRDNARKSLYLQVNSLRAEDTAVYYCARDRGEWALGAYYYGLDVWGQGTTVTVSS
VL: DIVMTQSPLSLPVTPGEPASISCRSSQSLLHSDGYNYLDWYLQKSGQSPQLLIYLGSNRASGVPDRFSGSGSGTDFTLKISRMEAEDVGVYYCMQALQTPYTFGQGTKLEIK
B9: H4H17027P (antibody, human IgG4, V domains shown)
VH: EVQLVESGGGLVQPGGSLRLSCAASGFTFRNYAMHWVRQAPGEGLEWVAAIYRNSDSIDYADSVKGRFTISRDNAKNSLYLQMNSLKTEDTALYYCAKDEGFLEYFDSWGQGTLVTVSS
VL: EIVLTQSPGTLSLSPGERASLSCRASQSVSSSFLAWYQQKPGQAPRLLIYGVSSRFIGIPDRFSGGGSGTDFTLTITRLEPEDFAVYYCQQYGRSPWTFGQGTKVEIK
B10: H4H17028P (antibody, human IgG4, V domains shown)
VH: QVQLVESGGGVVQPGRSLRLSCAASGFTFSRYAIHWVRQAPGKGLEWVAVISYDGDDKYYGDSVKGRFTISRDNSKTMVYLHMNSLRTEDTAVYYCAKDGYSLYGKDYFDYWGQGTLVTVSS
VL: EIVLTQSPGTLPLSPGERATLSCRASQSITNSYLAWYQQKPDQAPRLLIYGASSRATGIPDRFSGSESGTDFTLTISRLEPEDFAVYYCQQYVRSPWTFGQGTKVEIK
B11: H4H16950P (antibody, human IgG4, V domains shown)
VH: QVQLVQSGAEVKKPGASVKVSCKTSGYTFTNYGITWVRQAPGQGLEWMGWISAYNGNTNYAQNVQGRVTMTTDTSTSTAYMEVRSLRSDDTAVYYCARRSSMLHFQHWGQGTLVTVSS
VL: DIVMTQSPDSLAVSLGERATINCKSSQHVLYDSSNENYLAWFQQKPGQPPKLLIYWASTRESGVPDRFSGSGSGTDFTLTISSLQAEDVAVYYCQQYSSAPYTFGQGTKLEIK

This experiment deals with Hazel (Cor A 1, MyBiosource, Cat #MBS5304600) (Hazel) (UniProt Q08407). As to the kind of experiment: SPR, mAb captured via anti-hFc, 25 C. For orientation: In SPR one partner is held on a chip, and binding of the other changes the refractive index at the surface.
B1: the 100 nM Analyte Bound (RU) worked out at 0 RU.

B2 returned a 100 nM Analyte Bound (RU) of 0 RU.

B3 came in with a 100 nM Analyte Bound (RU) of -1 RU.

In turn, B4 returned a 100 nM Analyte Bound (RU) of 0 RU.

As for B5, the 100 nM Analyte Bound (RU) is 0 RU.

In turn, B6 registered a 100 nM Analyte Bound (RU) of 1 RU.

For B7, the 100 nM Analyte Bound (RU) was determined as 0 RU.

In turn, B8 came in with a 100 nM Analyte Bound (RU) of 0 RU.

Consider B9, for which the 100 nM Analyte Bound (RU) turned out to be 0 RU.

Regarding B10, the 100 nM Analyte Bound (RU) was 0 RU.

Molecule B11 came in with a 100 nM Analyte Bound (RU) of 0 RU.
